Assay [1] addresses recombinant human IL-18Rα Fc chimera (R&D Systems, Cat. No. 816-LR) (human) (UniProt Q13478). Briefly: SPR cross-competition, second experiment; antibody 2 injected on hIL-18Rα hFc held by captured antibody 1 (competitor): Mab1G12.
For assay [2], the target named is human IL-18Rα (IL-18R1) on human cells (KG-1 cells, PBMC, TH1-cultured T cells, whole blood) (human) (UniProt Q13478). Put plainly: cell-based or functional assay.
Assay [3] has as its target recombinant human IL-18Rα Fc chimera (R&D Systems, Cat. No. 816-LR) (human) (UniProt Q13478). Put plainly: SPR cross-competition, second experiment; antibody 2 injected on hIL-18Rα hFc held by captured antibody 1 (competitor): Mab2D11.
For assay [4] the target is unchanged. Put plainly: SPR cross-competition, second experiment; antibody 2 injected on hIL-18Rα hFc held by captured antibody 1 (competitor): Mab840.
For assay [5], the target named is T1, human IL-18Rα (IL-18R1) on human cells (KG-1 cells, PBMC, TH1-cultured T cells, whole blood) (human, UniProt Q13478 19-541).
T1 sequence: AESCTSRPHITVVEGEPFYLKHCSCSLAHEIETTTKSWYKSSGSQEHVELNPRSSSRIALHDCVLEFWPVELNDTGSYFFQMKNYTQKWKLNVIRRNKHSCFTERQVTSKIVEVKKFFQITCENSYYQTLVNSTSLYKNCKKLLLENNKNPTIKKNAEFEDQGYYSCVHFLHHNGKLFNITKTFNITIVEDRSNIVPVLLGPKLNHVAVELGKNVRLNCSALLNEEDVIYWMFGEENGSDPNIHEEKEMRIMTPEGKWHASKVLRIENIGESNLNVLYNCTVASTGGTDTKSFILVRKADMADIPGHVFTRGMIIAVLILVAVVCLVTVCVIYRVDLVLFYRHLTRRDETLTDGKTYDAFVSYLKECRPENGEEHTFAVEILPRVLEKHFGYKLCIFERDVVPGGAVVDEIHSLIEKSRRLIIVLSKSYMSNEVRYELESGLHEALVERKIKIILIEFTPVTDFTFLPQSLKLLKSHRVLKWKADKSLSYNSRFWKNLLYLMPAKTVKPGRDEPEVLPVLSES
Put plainly: cell-based or functional assay.

Changes are numbered by the printed parent chain.

For “anti-human IL-18Rα murine MAb Clone 70625 (R&D Systems #MAB840) (antibody)”, the percentage of expected binding response for antibody 2 in assay [1] was 97%; in assay [3], 97%; in assay [4] it was 13%. In assay [2], this molecule yielded an IL-18 induced IFNγ production by human KG-1 cells, IC50 [pM] of 798 pM.

B1: humanized Mab1G12-9.6 (antibody, V domains shown)
VH: QVQLVQSGAEVKKPGASVKVSCKASDYTFTSNWMHWVRQAPGQGLEWMGTIDPSDSYTYYNQKFQGRVTMTRDTSTSTVYMELSSLRSEDTAVYYCTTSGDYDADRYFDVWGQGTTVTVSS
VL: EIVLTQSPGTLSLSPGERATLSCRASKSVSTSGDSYMHWYQQKPGQAPRLLIYLASNLETGIPDRFSGSGSGTDFTLTISRLEPEDFAVYYCQQSRELPLSFGQGTKLEIK
Turning to B1, in assay [5], the “human TH1-assay (IFN-γ after IL-18/IL-12 restimulation), IC90 [pM]” value (shortened to “human TH1-assay”) is 148 pM.

B2: humanized Mab1G12-10.6 (antibody, V domains shown)
VH: B1 VH with V68A, R72V
VL: B1 VL
As for B2, in assay [5], the “human TH1-assay” value was found to be 93.5 pM.

B3: humanized Mab1G12-11.6 (antibody, V domains shown)
VH: B1 VH with D26G, N61A, T76I, V79A, S85R, E89D
VL: B1 VL
Regarding B3, in assay [5], the “human TH1-assay” value was 77 pM.

B4: humanized Mab1G12-10.5 (antibody, V domains shown)
VH: B1 VH with V68A, R72V
VL: DIQMTQSPSSLSASVGDRVTITCQASKSVSTSGDSYMHWYQQKPGKAPKLLIYLASNLETGVPSRFSGSGSGTDFTFTISSLQPEDIATYYCQQSRELPLSFGQGTKLEIK
Consider B4, for which the “human TH1-assay” value in assay [5] was 283 pM.

B5: humanized Mab1G12-12.6 (antibody, V domains shown)
VH: B1 VH with D26G, N61A, F64L, R72T, V79A, S84R, E89D
VL: B1 VL
As for B5, the “human TH1-assay” value in assay [5] was determined as 399 pM.

The record behind these values is US20120156198A1 (Hoffmann-La Roche, published 2012).
